Source: article PMC5234850 (Cell reports, 2017)

T1: human Mre11 core (2-411aa), N-terminal his-tagged (human, UniProt P49959 2-411)
T1 sequence (looked up): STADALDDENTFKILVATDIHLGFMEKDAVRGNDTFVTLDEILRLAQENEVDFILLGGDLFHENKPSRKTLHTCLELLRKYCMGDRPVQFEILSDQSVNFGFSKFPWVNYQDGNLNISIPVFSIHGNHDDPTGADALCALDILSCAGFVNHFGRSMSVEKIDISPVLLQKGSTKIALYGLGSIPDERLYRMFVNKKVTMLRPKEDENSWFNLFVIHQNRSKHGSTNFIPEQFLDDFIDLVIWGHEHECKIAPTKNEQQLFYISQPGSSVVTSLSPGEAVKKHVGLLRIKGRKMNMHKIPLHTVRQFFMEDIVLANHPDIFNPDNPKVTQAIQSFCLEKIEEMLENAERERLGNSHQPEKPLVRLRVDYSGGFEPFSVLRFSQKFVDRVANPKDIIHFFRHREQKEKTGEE


Assays:
[1] = molecular target: human Mre11 core (2-411aa), N-terminal his-tagged (human) (UniProt P49959); test: SEC
[2] = molecular target: T1, human Mre11 core (2-411aa), N-terminal …; test: SEC

stoichiometry N [1]	binding result [2]	Molecule
2	–	human Mre11 core (2-411aa), N-terminal his-tagged (from UniProt P49959 2-411) (domain or fragment)
–	binds	human Nbs1 F4 (622-729aa) fused to maltose binding protein (domain or fragment, UniProt O60934 622-729, looked up) KKRELKEDSLWSAKEISNNDKLQDDSEMLPKKLLLTEFRSLVIKNSTSRNPSGINDDYGQLKNFKKFKKVTYPGAGKLPHIIGGSDLIAHHARKNTELEEWLRQEMEV
